Reference: PMC7679444

B1: TMEM59 peptide (residues 268–280), wild type [modified: long spacer (Tds) at the N-terminal end, used for immobilisation; long spacer (Tds) at the N-terminal end, used for immobilisation] [not stated] / GST-HA-ATG16L1(231–607) … (parent)
chain 1: PLPVEQDDDIEVIVDETSDHTEETSPVRAISRAATKRLSQPAGGLLDSITNIFGRRSVSSFPVPQDNVDTHPGSGKEVRVPATALCVFDAHDGEVNAVQFSPGSRLLATGGMDRRVKLWEVFGEKCEFKGSLSGSNAGITSIEFDSAGSYLLAASNDFASRIWTVDDYRLRHTLTGHSGKVLSAKFLLDNARIVSGSHDRTLKLWDLRSKVCIKTVFAGSSCNDIVCTEQCVMSGHFDKKIRFWDIRSESIVREMELLGKITALDLNPERTELLSCSRDDLLKVIDLRTNAIKQTFSAPGFKCGSDWTRVVFSPDGSYVAAGSAEGSLYIWSVLTGKVEKVLSKQHSSSINAVAWSPSGSHVVSVDKGCKAVLWAQY
chain 2: YVPSEKLSIYGDL

Variants of: B1
Assay: peptide microarray
Conditions: with GST-HA-ATG16L1(231–607) [human], parent: 100

| Variant | percent of parent (ligand 200, 50, 20 nM) [% WT] | percent of parent (ligand 800, 600, 400 nM) [% WT] |
| --- | --- | --- |
| chain 2 E5G | 158 | 142 |
| chain 2 E5D | 123 | 126 |
| chain 2 E5H | 303 | 183 |
| chain 2 E5P | 92 | 97 |
| chain 2 E5W | 105 | 109 |
| chain 2 E5T | 261 | 179 |
| chain 2 E5K | 330 | 186 |
| chain 2 E5R | 224 | 165 |
| chain 2 E5F | 22 | 29 |
| chain 2 E5L | 42 | 51 |
| chain 2 E5Y | 158 | 148 |
| chain 2 E5V | 47 | 52 |
| chain 2 E5A | 86 | 95 |
| chain 2 E5S | 146 | 135 |
| chain 2 E5I | 27 | 32 |
| chain 2 E5Q | 214 | 167 |
| chain 2 E5N | 269 | 183 |
| chain 2 E5M | 217 | 162 |
| chain 2 I9S |  | 61 |
| chain 2 I9G |  | 39 |
| chain 2 I9A |  | 76 |
| chain 2 I9M |  | 66 |
| chain 2 I9N |  | 51 |
| chain 2 I9P |  | 89 |
| chain 2 I9H |  | 145 |
| chain 2 I9L |  | 95 |

The remaining lines, values ahead:

| percent of parent (ligand 200, 50, 20 nM) [% WT] | percent of parent (ligand 800, 600, 400 nM) [% WT] | Variant |
| --- | --- | --- |
| 3 | 7 | chain 2 L7E |
| 102 | 89 | chain 2 L7F |
| 31 | 58 | chain 2 L7S |
| 32 | 59 | chain 2 L7R |
| 38 | 73 | chain 2 L7T |
| 11 | 28 | chain 2 L7Q |
| 50 | 56 | chain 2 V2S |
| 31 | 28 | chain 2 V2M |
| 145 | 134 | chain 2 V2L |
| 101 | 96 | chain 2 V2K |
| 96 | 99 | chain 2 V2I |
| 80 | 90 | chain 2 V2Y |
| 55 | 67 | chain 2 V2H |
| 12 | 15 | chain 2 V2Q |
| 118 | 119 | chain 2 V2W |
| 19 | 25 | chain 2 V2N |
| 250 | 177 | chain 2 V2F |
| 73 | 58 | chain 2 V2G |
| 33 | 31 | chain 2 V2T |
| 41 | 47 | chain 2 V2R |
| 47 | 50 | chain 2 V2A |
| 35 | 41 | chain 2 V2P |
| 9 | 11 | chain 2 V2E |
| 13 | 18 | chain 2 V2D |
|  | 200 | chain 2 I9W |
|  | 198 | chain 2 I9Y |
